The target of the experiment is purified PLD1 (isoform not distinguished in Example 4) (human). As to the kind of experiment: cell-based or functional assay.

With “human ADP-ribosylation factor 1 (ARF1) (from UniProt P84077 2-181)”, the activation of PLD1 at a maximally effective concentration (ARF1 4.7 M as printed) was determined as 49 fold, the half-maximal activation of PLD1 activity (headgroup release assay) is 0.2 M and the stimulation of PLD1 activity amounted to 50 fold.

On to “human RhoA with … at the amino terminus (from UniProt P61586 1-190)”, for which the activation of PLD1 at a maximally effective concentration (RhoA 3.8 M as printed) turned out to be 13 fold, the half-maximal activation of PLD1 activity (headgroup release assay) was 1 M and the stimulation of PLD1 activity is 10 fold.

In the case of “human cdc42 with … at the amino terminus (from UniProt P60953 1-188)”, the activation of PLD1 at a maximally effective concentration (cdc42 5.5 M as printed) turned out to be 10 fold, the half-maximal activation of PLD1 activity (headgroup release assay) was 1 M and the stimulation of PLD1 activity was determined as 5 fold.

For “human protein kinase C- (isoform letter lost in print) (from UniProt P17252 2-672) (enzyme)”, the activation of PLD1 at a maximally effective concentration (PMA-activated PKC- 0.043 M as printed) is 28 fold.

Source of the values: patent publication US20030124108A1.
